Test results as given in patent US20100303814A1 (VIVENTIA BIOTECHNOLOGIES, published 2010).
Where no end group is shown, it is not given here. The star is where a group is joined. Biotin = O=C1N[C@H]2[C@H](CS[C@H]2CCCCC(=O)*)N1

Assays:
[1] = molecular target: T1, PSPep1 (Biotin TARIRAVGLLTVISK) (human); test: ELISA on peptide-coated plate
T1 construct: Synthetic peptide, part of the immunogen of the commercial anti-PSCA antibodies, 1823.9 amu
T1 peptide: Biotin-TARIRAVGLLTVISK
Procedure: (§1) Peptide solutions were diluted 1-in-100 with Hank's buffered saline solution (HBSS) containing 0.5% formaldehyde. 100 μL of diluted peptide solution was distributed to each well in a 96-well plate. The plates were incubated at room temperature for 1 hour. The supernatant was removed and the plates were placed uncovered in a 37° C. incubator for 16-18 hours. The peptide-coated plates were placed in plastic bags and stored at 2-8° C. until required.
(§2) The plates were washed as previously described with the wash buffer (PBS containing 0.5% Tween 20). The plates were incubated with 1:6000 dilution of anti-human IgG-HRP for one hour at room temperature. The plates were washed as previously described. 100 μL of TMB substrate (TMB peroxidase substrate KPL cat# 50-76-00) was added to each well and incubated for 5-10 minutes in the dark. The reaction was terminated by adding 100 μL of 1M phosphoric acid to each well. The optical density was measured at 450 nm using an ELISA plate reader.

[2] = molecular target: T2, PSPep3 (Biotin LCNASGAHALQ), negative peptide (human); test: ELISA on peptide-coated plate
T2 construct: Synthetic peptide derived from PSCA, 1306.59 amu; also called PSPep3 (Negative)
T2 peptide: Biotin-LCNASGAHALQ
Procedure: as §1, §2

[3] = molecular target: T3, antigen bound by VB1-213 on A-375 tumor cells; test: flow cytometry saturation curve on A-375 cells, Lineweaver-Burk method
T3 construct: Placeholder target for the KD measured on whole A-375 cells; also called A-375 carcinoma cells
Procedure: Flow cytometry was used to assess binding affinity (C. A. Benedict, A. J. MacKrell, W. F. Anderson, J. Immunol. Methods 201, 223 (1997)). A range of antibody concentrations were tested against a fixed number of tumor cells (A-375) for 2 hours to obtain a saturation curve. Values and graphical analysis were generated using Sigma Plot (Jandel Scientific, San Rafael, Calif.). The inverse of the determined median fluorescence was plotted as a function of the inverse of antibody concentration to determine KD by the Lineweaver-Burk method.

[4] = molecular target: T4, prostate stem cell antigen (PSCA) (human, UniProt O43653 12-83); test: immunoprecipitation with VB1-213, in-solution digest, mass spectrometry
T4 sequence: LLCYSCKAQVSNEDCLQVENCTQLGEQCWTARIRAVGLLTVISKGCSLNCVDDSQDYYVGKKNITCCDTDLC
Procedure: A pre-clearing step using protein-G sepharose alone was the first step in the purification of the antigen prior to the addition of the antibody. In certain cases, pre-clearing was performed twice to add more stringency to the assay. A total of 50 μg of antibody was used as the precipitating agent in the mixture. The antigen-antibody mixtures were nutated overnight at 4° C. using buffer conditions that mimicked physiological conditions. Care was taken to ensure that protease inhibitors were used in every step of the antigen isolation process.
The extracted peptides were concentrated and desalted using μ-C18 columns and used for MS analysis. Two distinct proteins were identified, in all three cell lines, as “Mixture1”, consisting of HnRNPG+Prostate stem cell antigen (PSCA). HnRNPG and PSCA were identified as a “Mixture1”, each with 76% and 95% sequence coverage and a highly significant combined score of 413. The sequence coverage and peptides corresponding to PSCA are shown in FIGS. 18 and 19 and Table 7 (SEQ ID NO: 18 to 22). The peptides isolated by this method corresponding to HnRNPG as shown in Table 8 (SEQ ID NO: 72 to 110).

binding result [1]: no binding
binding result [2]: no binding
Kd [3]: 627 nM
binding result [4]: binds
B1: VB1-213 monoclonal antibody (antibody, human IgG1, V domains shown)
VH: EVQLLESGGGLVQPGGSLRLSCAASGFTFRSYAMSWVRQAPGKGLEWVSTISGRGVTTYYADSVKGRFTISRDNSKNTLYLQMNSLRADDTALYYCAKDRTRYYGMDVWGQGTTVTVSS
VL: SYELTQPPSVSVSPGQTASITCSGNKLGDKYACWYQQKSGQSPVLVIYQDSKRPSGIPERFSGSNSGNTATLTISGTQALDEADYYCQAWDNSTAVFGGGTKLTVLG
notes: Human IgG1, lambda monoclonal antibody from a hybridoma (lymph node cells of an ovarian cancer patient fused with MFP-2); no constant regions for the IgG as tested
